According to patent US20250320309A1 (SHENGHE CHINA BIOPHARMACEUTICAL, published 2025):

T1: human CD24 (human, UniProt P25063 27-59)
T1 chain (looked up): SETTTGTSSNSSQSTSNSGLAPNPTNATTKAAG


Biological target: T1, human CD24
Test: cell-based or functional assay

| ADCP: phagocytosis of CD24-SKOV3 cells by macrophages, EC50 [pM] | ADCP: phagocytosis of MCF-7 cells by macrophages, EC50 [pM] | Binder |
| --- | --- | --- |
| 4 | 2 | 1-D2-IgG4 (bispecific antibody) heavy: not shown light: DIQMTQSPSTLSASVGDRVTITCSASSSVSSMHWYQQKPGKAPKLLIYSTSNLASGVPSRFSGSGSGTEYTLTISSLQPDDFATYYCHHWTSYMYTFGGGTKVEIKRTVAAPSVFIFPPSDEQLKSGTASVVCLLNNFYPREAKVQWKVDNALQSGNSQESVTEQDSKDSTYSLSSTLTLSKADYEKHKVYACEVTHQGLSSPVTKSFNRGECGGGGSGGGGSQVQLQESGPGLVKPSETLSLTCTVSGSSLTSYGVHWVRQPPGKCLEGLGVIWPGGSTNYNSALMSRVTISKDNSKSQVSLKMSSLTAADTAVYYCARVTGTWYFDVWGQGTTVTVSSGGGGSGGGGSGGGGSDIQMTQSPSSLSASLGDRVTISCSASQGISNYLNWYQQKPDGTVKLLIYYTSTLHSGVPSRFSGSGSGTDYTLTISSLQPEDIATYYCQQYSKLPWTFGCGTKLEIK |
| 13 | 4 | 1-C2-IgG1 (bispecific antibody) heavy: not shown light: DIQMTQSPSTLSASVGDRVTITCSASSSVSSMHWYQQKPGKAPKLLIYSTSNLASGVPSRFSGSGSGTEYTLTISSLQPDDFATYYCHHWTSYMYTFGGGTKVEIKRTVAAPSVFIFPPSDEQLKSGTASVVCLLNNFYPREAKVQWKVDNALQSGNSQESVTEQDSKDSTYSLSSTLTLSKADYEKHKVYACEVTHQGLSSPVTKSFNRGEC |
